Experimental data reported in patent publication US20120121507A1 (NATIONAL RESEARCH COUNCIL OF CANADA, published 2012).

Experiments:
[1] = biological target: T1, recombinant human clusterin (human, UniProt P10909 23-449); assay: SPR, rh-clusterin flowed over immobilized P3375R, response against the clusterin concentration [right panel]
T1 construct: also called rhCLU; rh-clusterin
Method: (§1) Protein-peptide interactions were followed using a BIAcore 3000 instrument (Biosensor AB, Uppsala, Sweden). All binding experiments were carried out at 25° C. under a continuous flow of the HBS-EP buffer (20 mM HEPES, 150 mM NaCl, 3.4 mM EDTA and 0.05% Tween-200) at pH 7.4 over the sensor surface at a flow rate of 20 μL/min. Different concentrations of rh-clusterin in the HBS-EP buffer were injected over the peptide-derivatized sensor chips. Dissociation was monitored for up to 300 s post-injection. The surfaces were fully regenerated by 15 s injection of an HBS-EP buffer solution containing 5 mM NaOH. […] Reference responses from control flow cells, containing unmodified dextran surfaces, were subtracted from peptide-containing flow cells, for each analyte injection using the BiaEvaluation software version 3.0 (Biacore AB, Uppsala, Sweden).
The sequence dependence of the clusterin-peptide interactions was investigated using SPR biosensor analysis and peptides with scrambled sequences. Immobilization of the peptides on the sensor chips and the SPR experiments were conducted as described in Example 4.

[2] = biological target: T1, recombinant human clusterin; assay: SPR (BIAcore 3000), rhCLU over immobilized P3378 (500 RU), kinetic global fit, 1:1 Langmuir
Method: as §1
(§2) The resulting sensorgrams were used for kinetic rate determination through global fitting of the experimental data to a simple 1:1 Langmuir binding model. […] Affinity data (KD) from the binding studies were obtained by plotting the response in RU at the steady state, Req, versus the concentration of clusterin, C, and by fitting these curves to a one-site binding model, Req=C*xRmax/(C+KD) where Rmax is the value in RU at saturation and Req is the observed optical change in RU at each given C. […]

[3] = biological target: T1, recombinant human clusterin; assay: SPR, rh-clusterin 0-1.2 µM over immobilized P3378, no antibody; no antibody; rh-clusterin alone over immobilized P3378
Method: as §1, with “All” for “Protein-peptide interactions were followed using a BIAcore 3000 instrument (Biosensor AB, Uppsala, Sweden). All”
(§3) The question of whether an EMT-blocking anti-clusterin monoclonal antibody (mAb) 16B5 and P3378 have overlapping or independent binding sites on clusterin was investigated using SPR biosensor analysis. Several mAbs that interact with clusterin have been isolated; five of these mAbs, including 16B5, interact with an epitope on clusterin that is important for the EMT-promoting action of clusterin. Accordingly, these anti-clusterin mAbs inhibit EMT in cell culture, and tumor metastasis in animal models (O'Connor-McCourt et al, WO 2007/030930). […]

[4] = biological target: T1, recombinant human clusterin; assay: SPR, rh-clusterin preincubated with mAb 16B5 (ratios of 1:1.7), flowed over immobilized P3378; rh-clusterin preincubated with mAb 16B5 (ratio 1:1.7)
Method: Different concentrations of rh-clusterin in the HBS-EP buffer were injected over the peptide-derivatized sensor chips. Dissociation was monitored for up to 300 s post-injection. The surfaces were fully regenerated by 15 s injection of an HBS-EP buffer solution containing 5 mM NaOH. […] Reference responses from control flow cells, containing unmodified dextran surfaces, were subtracted from peptide-containing flow cells, for each analyte injection using the BiaEvaluation software version 3.0 (Biacore AB, Uppsala, Sweden).
as §3, with “2007/030930). Since clusterin-binding peptides can be used to non-invasively image clusterin-expressing tumors (primary tumors and metastases) in vivo, it is important to determine whether treatment with anti-clusterin mAbs may block peptide binding to the clusterin target and therefore compromise the ability of the peptides to image the tumor.” for “2007/030930).”

[5] = biological target: T1, recombinant human clusterin; assay: SPR, rh-clusterin alone flowed over immobilized P3378, fit of the response against the clusterin concentration [inset]
Method: as §1, with “All” for “Protein-peptide interactions were followed using a BIAcore 3000 instrument (Biosensor AB, Uppsala, Sweden). All”
as §3

[6] = biological target: T1, recombinant human clusterin; assay: SPR (BIAcore 3000), rhCLU 5.5 nM-1.4 µM over immobilized P3378 (500 RU), global fit, 1:1 Langmuir
Method: as §1, §2

[7] = biological target: T1, recombinant human clusterin; assay: SPR, rhCLU flowed over immobilized P3375, global fit
Method: as §1, §2

[8] = biological target: T1, recombinant human clusterin; assay: SPR (BIAcore 3000), rhCLU 2 nM-1.1 µM over immobilized P3375 (1200 RU), global fit, 1:1 Langmuir
Method: as §1, §2

[9] = biological target: T1, recombinant human clusterin; assay: SPR (BIAcore 3000), rhCLU over immobilized P3375 (1200 RU), kinetic global fit, 1:1 Langmuir
Method: as §1, §2

[10] = biological target: T1, recombinant human clusterin; assay: SPR, rhCLU flowed over immobilized P3376, fit of the response against the clusterin concentration [inset]
Method: as §1, §2

[11] = biological target: T1, recombinant human clusterin; assay: SPR, rhCLU 0 nM to 1.4 µM over immobilized P3376 (150 RU), response at equilibrium, one-to-one binding model
Method: as §1, §2

[12] = biological target: T1, recombinant human clusterin; assay: SPR, rhCLU flowed over immobilized P3378R
Method: as §1
This control peptide has the same amino acid content as P3378 but with a randomized sequence ([…]—SEQ ID NO:6). A lack of binding between rhCLU and this control peptide is evidenced by the linear nature of the Scatchard plot (inset; the response at equilibrium plotted against the concentration of rhCLU).

T1 sequence (P10909 23-449 limits assumed): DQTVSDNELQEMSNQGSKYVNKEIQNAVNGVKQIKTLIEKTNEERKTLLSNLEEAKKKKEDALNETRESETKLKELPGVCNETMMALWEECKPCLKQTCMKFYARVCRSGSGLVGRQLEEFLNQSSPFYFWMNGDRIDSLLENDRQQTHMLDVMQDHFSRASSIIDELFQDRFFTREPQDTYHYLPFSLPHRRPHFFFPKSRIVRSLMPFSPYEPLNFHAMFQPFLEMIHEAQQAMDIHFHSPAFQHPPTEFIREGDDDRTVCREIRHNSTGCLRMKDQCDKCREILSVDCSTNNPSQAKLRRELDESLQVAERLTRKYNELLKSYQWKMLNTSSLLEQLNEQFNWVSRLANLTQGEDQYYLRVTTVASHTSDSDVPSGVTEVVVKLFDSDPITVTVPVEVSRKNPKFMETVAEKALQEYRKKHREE

Binder: LSLYHTNTQFWQSGSGC (Immobilised on the SPR chip) [P3375R, randomized version of P3375 (LSLYHTNTQFWQSGSGC)]
- EC50 (read off the curve) [1]: ~200 nM

B1: P3378 synthetic peptide (HPLSKHPYWSQP with C-terminal SGSGC extension) (peptide)
peptide: HPLSKHPYWSQPSGSGC
notes: Synthesised by Fmoc chemistry; In SPR it was immobilised on a CM5 chip by a thioether bond from the C-terminal Cys to maleimide; In STD-NMR it was free in solution
- Kd [2]: 300 nM
- Kd [3]: 520 nM
- Kd [4]: 1100 nM
- Kd [5]: 514 nM
- koff [6]: 0.0052 s⁻¹
- kon [6]: 17200 M⁻¹ s⁻¹

B2: P3375 synthetic peptide (NTYWSQLLHFQT with C-terminal SGSGC extension) (peptide)
peptide: NTYWSQLLHFQTSGSGC
notes: In SPR it was immobilised through the C-terminal Cys (thioether); In STD-NMR it was free in solution
- koff [7]: 0.00603 s⁻¹
- koff [8]: 0.006 s⁻¹
- kon [8]: 11200 M⁻¹ s⁻¹
- Kd [9]: 540 nM

B3: P3376 synthetic peptide (SHALPLTWSTAA with C-terminal SGSGC extension) (peptide)
peptide: SHALPLTWSTAASGSGC
notes: as for B2
- Kd [10]: 342 nM
- Kd [11]: 340 nM

B4: P3378R, randomized-sequence control peptide of P3378 (PYLHQSPHWKPSSGSGC) (peptide)
peptide: PYLHQSPHWKPSSGSGC
notes: Immobilised on the SPR chip; also called scrambled control peptide
- binding result [12]: no binding
